This note sets out measurements from the supplement of paper PMC10567573.

± gives the standard deviation.

This series can be described thus: protein stability index of a GFP-peptide fusion (GPS, HEK-293T) (PSI 1-6); higher = more stable. The following applies: c terminus: a fixed tail appended.
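Further: 24-mer peptide tiles fused after GFP, lentivirally expressed, FACS-sorted into six equal bins by GFP/DsRed ratio, decoded by Illumina sequencing, PSI is the read-weighted mean bin number.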

Regarding KPHRLGDSEHEPVYRAELVGELNG [PWWP2B], the protein stability index (treatment: DMSO) was determined as 5.01 ± 0.13 and the protein stability index (treatment: MLN4924 1 uM, 8 h) worked out at 4.5 ± 0.4.

Sequence RNSGIIGGKYLGRTKVVKPYSTVD [EFHC1] returned a protein stability index (treatment: DMSO) of 2.91 ± 0.26 and a protein stability index (treatment: MLN4924 1 uM, 8 h) of 3.46 ± 0.17.

REAATKHSKASLPTGEGSISHEEQ [CHCHD6]: the protein stability index worked out at 5.3 ± 0.24 (treatment: DMSO) and 5.34 ± 0.3 (treatment: MLN4924 1 uM, 8 h).

Regarding VLALEERFGVRPKVTGYLISYSSM [MFSD9], the protein stability index reads like this: (treatment: DMSO) 2.17 ± 0.53; (treatment: MLN4924 1 uM, 8 h) 1.95 ± 0.099.

Turning to LQQERQRLGQRQPPPSEPTQGPEI [DNAJC4], the protein stability index turned out to be 5.52 ± 0.16 (treatment: DMSO) and 5.16 ± 0.081 (treatment: MLN4924 1 uM, 8 h).

Take GDSGERSEGEAMEICSEPVAASPA [ZNF511]: the protein stability index reads like this: (treatment: DMSO) 5.47 ± 0.24; (treatment: MLN4924 1 uM, 8 h) 5.52 ± 0.26.

The sequence TLAQFPETLLGDPEKRTQYFDPLR [KCNA4] yielded a protein stability index (treatment: DMSO) of 3.5 ± 0.31 and a protein stability index (treatment: MLN4924 1 uM, 8 h) of 3.6 ± 0.36.

LLLNNANPNLSNRRGSTPLHMAVE [RIPK4]: the protein stability index (treatment: DMSO) is 2.41 ± 0.25 and the protein stability index (treatment: MLN4924 1 uM, 8 h) was found to be 2.73 ± 0.43.

Take SPEVLRKDPYGKPVDLWACGVILY [CAMK2A]: the protein stability index was 2.67 ± 0.56 (treatment: DMSO) and 2.49 ± 0.49 (treatment: MLN4924 1 uM, 8 h).

On to LEQKTQESQKKKQQDDSDEYDDDD [ZNF207], for which the protein stability index (treatment: DMSO) turned out to be 5.62 ± 0.12 and the protein stability index (treatment: MLN4924 1 uM, 8 h) worked out at 5.61 ± 0.34.

Turning to VNLPISFFRKLLDCCQVSAPNRFF [NLN], under “treatment: MLN4924 1 uM, 8 h”, the protein stability index came out at 2.62 ± 0.6.

In the case of RAIMAHMTVEEIYKDRQKFSEQVF [FLOT1], the protein stability index turned out to be 2.52 ± 0.32 (treatment: DMSO) and 2.74 ± 0.3 (treatment: MLN4924 1 uM, 8 h).

For LRHLELLDEFARENIDSLYNVNLS [SCNN1D], the protein stability index was determined as 2.66 ± 0.092 (treatment: DMSO) and 2.94 ± 0.34 (treatment: MLN4924 1 uM, 8 h).

For the sequence LYILGNFMQLKCFSSQKLKCLSMF [PNLIPRP1], the protein stability index stood at 3.67 ± 0.66 (treatment: DMSO) and 3.46 ± 0.73 (treatment: MLN4924 1 uM, 8 h).

Consider RERADIGGLMARPEYREWNPELIK [FAM107A], for which the protein stability index (treatment: DMSO) stood at 4.16 ± 0.12 and the protein stability index (treatment: MLN4924 1 uM, 8 h) came to 3.8 ± 0.18.

For the sequence AALCLEVTLKTAVDGPDLEMLTGQ [FKBP8], the protein stability index was found to be 2.47 ± 0.38 (treatment: DMSO) and 2.49 ± 0.091 (treatment: MLN4924 1 uM, 8 h).

The sequence DEEVQRKREMILKRKEEEALKDSL [VDR] registered a protein stability index (treatment: DMSO) of 5.35 ± 0.22 and a protein stability index (treatment: MLN4924 1 uM, 8 h) of 5.5 ± 0.19.

On to NWKETLVFPPEVPISEKAKDLILR [STK38L], for which the protein stability index is, setting by setting: (treatment: DMSO) 2.81 ± 0.43; (treatment: MLN4924 1 uM, 8 h) 3.28 ± 0.29.

On to LADPYRSLKAPGARGPGPEGGGGG [JUNB], for which the protein stability index was found to be 4.63 ± 0.53 (treatment: DMSO) and 4.71 ± 0.47 (treatment: MLN4924 1 uM, 8 h).

As to NFCEPQDYRPMNHEAFKDELKTFR [CDC25B], the protein stability index is, setting by setting: (treatment: DMSO) 4.04 ± 0.085; (treatment: MLN4924 1 uM, 8 h) 4.15 ± 0.25.

For RIKEVEHMTRHLEESEKAMQERVQ [LRRC45], the protein stability index reads like this: (treatment: DMSO) 5 ± 0.22; (treatment: MLN4924 1 uM, 8 h) 4.99 ± 0.21.

For the sequence MGGHHPGADYPVDGLPDLGHAQDL [CTNNB1], the protein stability index is 5.03 ± 0.25 (treatment: DMSO) and 5.03 ± 0.3 (treatment: MLN4924 1 uM, 8 h).

SSCVKILLDHNANIDIQNGFLLRY [ASB7]: the protein stability index reads like this: (treatment: DMSO) 2.47 ± 0.43; (treatment: MLN4924 1 uM, 8 h) 2.5 ± 0.24.

RVAEVSRVRVELQEQNGRLQAELA [LRRC45] came in with a protein stability index (treatment: DMSO) of 4.11 ± 0.3 and a protein stability index (treatment: MLN4924 1 uM, 8 h) of 4.19 ± 0.13.

Consider PAVTPDPWGVQGGQESEVPYKREE [PKD2L1], for which the protein stability index runs as follows: (treatment: DMSO) 5.24 ± 0.33; (treatment: MLN4924 1 uM, 8 h) 5.49 ± 0.16.

Turning to VGDLMGSLAYCLACGGGHLLPYFY [DHCR7], the protein stability index is 3.12 ± 0.28 (treatment: DMSO) and 3.47 ± 0.39 (treatment: MLN4924 1 uM, 8 h).

As to HNRKVLTIFSASNYYEVGSNRGAY [PPEF2], the protein stability index reads like this: (treatment: DMSO) 2.44 ± 0.28; (treatment: MLN4924 1 uM, 8 h) 2.46 ± 0.24.

For the sequence YPALASKNGKKWEILNFNQYYEAC [ACSBG2], the protein stability index was found to be 2.68 ± 0.26 (treatment: DMSO) and 2.81 ± 0.41 (treatment: MLN4924 1 uM, 8 h).

Turning to DTHSWKSELQREMEALAAETNLLL [TEKT4], the protein stability index reads like this: (treatment: DMSO) 3.25 ± 0.33; (treatment: MLN4924 1 uM, 8 h) 3.59 ± 0.44.

With FLDWLRTNPDLIIVCAQSSQSLWN [SMG5], the protein stability index is, setting by setting: (treatment: DMSO) 2.5 ± 0.41; (treatment: MLN4924 1 uM, 8 h) 2.36 ± 0.41.

Take PVQASQLEEEFDSDSGLSLDSSHS [NFE2L1]: the protein stability index is, setting by setting: (treatment: DMSO) 5.51 ± 0.11; (treatment: MLN4924 1 uM, 8 h) 5.46 ± 0.22.

Consider LKYQAPDIDVQLSSELTDSLRTLK [NOP53], for which the protein stability index turned out to be 2.79 ± 0.14 (treatment: DMSO) and 3.14 ± 0.45 (treatment: MLN4924 1 uM, 8 h).

As for GGLQHRVTAKTAPDVLRTKPAFIG [PTPRD], the protein stability index reads like this: (treatment: DMSO) 3.44 ± 0.5; (treatment: MLN4924 1 uM, 8 h) 3.07 ± 0.34.

In the case of LPTLVPWYFWGETFQNSVFVATFL [SCD], the protein stability index reads like this: (treatment: DMSO) 3.15 ± 0.076; (treatment: MLN4924 1 uM, 8 h) 3.09 ± 0.35.

In turn, LECEINTYRSLLESEDCKLPSNPC [KRT33B] gave a protein stability index (treatment: DMSO) of 4.07 ± 0.11 and a protein stability index (treatment: MLN4924 1 uM, 8 h) of 4.25 ± 0.23.

Take FDVAFIGSIMTVWLSTAPTEPLTH [CARM1]: the protein stability index (treatment: DMSO) came out at 3.24 ± 0.64 and the protein stability index (treatment: MLN4924 1 uM, 8 h) is 2.88 ± 0.53.

In turn, YTNSAGVPSLNAALMHTLQRHRDI [GOSR1] returned a protein stability index (treatment: DMSO) of 2.79 ± 0.15 and a protein stability index (treatment: MLN4924 1 uM, 8 h) of 2.92 ± 0.23.

NESTVCLMSYERRQILHLITMMAL [TENT5D]: the protein stability index came out at 2.3 ± 0.47 (treatment: DMSO) and 2.1 ± 0.2 (treatment: MLN4924 1 uM, 8 h).

Regarding LSPALDLQAESPPVDPDSQADTVH [DNAAF3], the protein stability index is, setting by setting: (treatment: DMSO) 5.48 ± 0.41; (treatment: MLN4924 1 uM, 8 h) 5.46 ± 0.21.

Take VISLLNEPNTFSPANVDASVMYRK [CDC34]: the protein stability index stood at 2.92 ± 0.25 (treatment: DMSO) and 3.07 ± 0.21 (treatment: MLN4924 1 uM, 8 h).

Take ERETEATRGRGGLLRDHIPRGKEE [MOG]: the protein stability index reads like this: (treatment: DMSO) 5.38 ± 0.38; (treatment: MLN4924 1 uM, 8 h) 5.18 ± 0.41.

On to PTQKALYNDVMQENYETVISLALF [ZNF75A], for which the protein stability index was found to be 2.57 ± 0.45 (treatment: DMSO) and 2.47 ± 0.37 (treatment: MLN4924 1 uM, 8 h).

In the case of GKDAKTTNGHGGEAAEGKSLGSAL [TRIM29], the protein stability index runs as follows: (treatment: DMSO) 5.36 ± 0.14; (treatment: MLN4924 1 uM, 8 h) 5.27 ± 0.19.

GYDGLNILNSVEKYDPHTGHWTNV [KLHL12] yielded a protein stability index (treatment: DMSO) of 2.75 ± 0.42 and a protein stability index (treatment: MLN4924 1 uM, 8 h) of 3.05 ± 0.19.

As for DLHCVLVTNPHSSQWKDPALSQLI [GADD45A], the protein stability index reads like this: (treatment: DMSO) 2.23 ± 0.26; (treatment: MLN4924 1 uM, 8 h) 2.3 ± 0.16.

In the case of NYMNAAMVHINRALKLIIRLFLVE [RTN3], the protein stability index runs as follows: (treatment: DMSO) 2.24 ± 0.21; (treatment: MLN4924 1 uM, 8 h) 2.27 ± 0.26.

Turning to ETILHFFVQILLALHHVHTHLILH [NEK8], the protein stability index by setting is: (treatment: DMSO) 3.19 ± 0.44; (treatment: MLN4924 1 uM, 8 h) 3.31 ± 0.29.

Turning to LSLLVMVISPVIQLQPTFTPMRVA [NSDHL], the protein stability index reads like this: (treatment: DMSO) 3.08 ± 0.32; (treatment: MLN4924 1 uM, 8 h) 3.23 ± 0.087.

For the sequence FSPANPESSMEDCLAHLGEKVSQE [BCL2L13], the protein stability index was 5.2 ± 0.38 (treatment: DMSO) and 5.39 ± 0.16 (treatment: MLN4924 1 uM, 8 h).

Take RCFWLGMEGLETAEGSNSESSDDD [SDE2]: the protein stability index (treatment: DMSO) worked out at 5.22 ± 0.42 and the protein stability index (treatment: MLN4924 1 uM, 8 h) came to 5.09 ± 0.3.

As for GKTTIILRCLDRDEPSKPTLALEY [DYNC2LI1], the protein stability index turned out to be 2.25 ± 0.37 (treatment: DMSO) and 2.05 ± 0.29 (treatment: MLN4924 1 uM, 8 h).

Take HSLERAGSKQYSAAIAFTLALFSH [SMG5]: the protein stability index reads like this: (treatment: DMSO) 2.48 ± 0.41; (treatment: MLN4924 1 uM, 8 h) 2.49 ± 0.44.

Turning to LSDDYEQVRSAAVQLIWVVSQLYP [INTS4], the protein stability index was 2.08 ± 0.43 (treatment: DMSO) and 2.13 ± 0.45 (treatment: MLN4924 1 uM, 8 h).
